Measured values reported in patent US20250281598.

Experiments:
[1] = tested on: 2G12 (anti-HIV gp120 broadly neutralizing antibody); test: filter; conditions: 2'-F pyrimidines, every U is 2'-F-5-ethynyl-U clicked to Man9-cyclohexyl azide (3 glycans)
[2] = tested on: 2G12 (anti-HIV gp120 broadly neutralizing antibody); test: pulldown; conditions: 2'-F pyrimidines, qPCR bead assay as glyco-RNA/DNA hybrid
[3] = tested on: 2G12 (anti-HIV gp120 broadly neutralizing antibody); test: FP filter; conditions: 2'-F pyrimidines; every U is 2'-F-5-ethynyl-U clicked to Man9-cyclohexyl azide (4 glycans); nitrocellulose filter binding, 32P RNA not gel purified; 20 mM Tris pH 7.5, 150 mM NaCl, 2 mM MgSO4; Fbmax 7.0%

“GGAGAGAAGGAGGGAAGAGAGAAAAAAAAAAGCGCCCAGGUGAUUGGGCGCAAGCGACACAAAGCCCGG [15F3-M1-Mod]” showed a Kd ([1]; gel purified and refolded, Fbmax 51%) of 36 nM.

“GGAGAGAAGGAGGGAAGAGAGAAAAAAUCGACGGAACAGGGGCCCCCUGUGGAAAGCGACACAAAGCCCGG [15F1]” gave a Kd ([2]; every U is 2'-F-5-ethynyl-U clicked to Man9-cyclohexyl azide (3 glycans), room temperature, Fbmax 7.9%) of 40 nM and a Kd ([1]; 20 mM Tris pH 7.5, 150 mM NaCl, 2 mM MgSO4, not gel purified, Fbmax 23%) of 40 nM.

Work on “GGAGAGAAGGAGGGAAGAGAGAAAAAAAACAGAGGGAACCCAGGUGAUUGGGGCAAGCGACACAAAGCCCGG [15F3-M1]” yielded a Kd ([2]; every U is 2'-F-5-ethynyl-U clicked to Man9-cyclohexyl azide (3 glycans), Fbmax 1.1%) of 31 nM.

In the case of “GGAGAGAAGGAGGGAAGAGAGAAAAAAAACAUAGGGAACCCAGGUGAUUGGGGCAAGCGACACAAAGCCCGG [15F3]”, the Kd [3] is reported as 13 nM and the Kd ([2]; every U is 2'-F-5-ethynyl-U clicked to Man9-cyclohexyl azide (4 glycans), room temperature, Fbmax 3.8%) is reported as 19 nM.
